Data taken from patent US20190309023A1 (MAINLINE BIOSCIENCES, published 2019).
Bridge positions count the residues as written; N and C are the ends. Square brackets hold non-standard residues; d marks the D form. * marks the point of attachment. 2Nal = N[C@@H](Cc1ccc2ccccc2c1)C(=O)O; Palmitoyl = CCCCCCCCCCCCCCCC(=O)*; Lauroyl = CCCCCCCCCCCC(=O)*; hCys = N[C@@H](CCS)C(=O)O; PhAc = O=C(Cc1ccccc1)*; Bz = O=C(c1ccccc1)*; Mpa = O=C(O)CCS; iPr = CC(C)*

Molecular target: T1, Human chemokine receptor CXCR4 (human, UniProt P61073 1-352)
T1 construct: whole, on cells; Used as membranes (0.5 ug membrane protein) of Chem-1 cells that express the receptor; also called C-X-C chemokine receptor type 4; fusin
Assay: competition with [125I]SDF-1α, human CXCR4 membranes (Chem-1 cells)
Description: Human chemokine receptor CXCR4 expressed in Chem-1 cells were used in modified HEPES buffer pH 7.4. A 0.5 μg (Membrane protein may change from lot to lot, the concentration used were adjusted as necessary), aliquot was incubated with 0.03 nM [¹²⁵I]SDF-1α for 90 minutes at 25° C. Non-specific binding was estimated in the presence of 30 nM SDF-1α. Membranes were filtered and washed, filters were then counted to determine [¹²⁵I]SDF-1α specifically bound. Compounds were screened starting at 10 μM with 11-point dilutions (Valenzuela-Fernandez A, et al. J Biol Chem. 277(18):15677, 2002).

T1 sequence (P61073 whole entry): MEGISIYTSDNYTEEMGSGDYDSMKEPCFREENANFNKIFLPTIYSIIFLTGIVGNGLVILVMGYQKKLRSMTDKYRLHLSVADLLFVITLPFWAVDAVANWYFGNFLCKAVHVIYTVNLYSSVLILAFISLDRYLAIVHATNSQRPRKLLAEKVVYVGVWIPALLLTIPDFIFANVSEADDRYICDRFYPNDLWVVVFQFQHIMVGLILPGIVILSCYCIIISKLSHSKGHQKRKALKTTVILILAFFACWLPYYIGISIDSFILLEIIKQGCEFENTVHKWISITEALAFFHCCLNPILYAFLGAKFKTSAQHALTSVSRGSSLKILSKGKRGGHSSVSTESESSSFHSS

| Binder | Binding Kb | IC50 |
| --- | --- | --- |
| Bz-CYK(iPr)[dR][2Nal]GCK(iPr)G-NH2 (linker 1-7 via 1,2‑bisbromomethyl benzene; also: acetate salt, Acetate salt) [MLB-030] | 0.39 nM | 1.3 nM |
| PhAc-[hCys]YK(iPr)[dR][2Nal]GCK(iPr)G-NH2 (disulfide 1-7; also: acetate salt, Synthetic cyclic peptide, acetate salt; also called MLB-025) [Phenylacetyl-cyclo[hCys-Tyr-Lys(iPr)-(D-Arg)-2Nal-Gly-Cys]-Lys(iPr)-Gly-NH2] | 0.25 nM | 0.84 nM |
| Bz-[hCys]YK(iPr)[dR][2Nal]GCK(iPr)G-NHEt (disulfide 1-7; also: acetate salt, Synthetic cyclic peptide, acetate salt; also called MLB-024) [Benzoyl-cyclo[hCys-Tyr-Lys(iPr)-(D-Arg)-2Nal-Gly-Cys]-Lys(iPr)-Gly-NH(Et)] | 0.39 nM | 1.3 nM |
| Bz-CYK(iPr)[dR][2Nal]GCK(iPr)G-NH2 (disulfide 1-7; also: acetate salt, Synthetic cyclic peptide, acetate salt; also called MLB-023) [Benzoyl-cyclo[Cys-Tyr-Lys(iPr)-(D-Arg)-2Nal-Gly-Cys]-Lys(iPr)-Gly-NH2] | 1 nM | 3.4 nM |
| Bz-[hCys]YK(iPr)[dR][2Nal]GCK(iPr)G-NH2 (disulfide 1-7; also: acetate salt, Synthetic cyclic peptide, acetate salt; also called MLB-021) [Benzoyl-cyclo[hCys-Tyr-Lys(iPr)-(D-Arg)-2Nal-Gly-Cys]-Lys(iPr)-Gly-NH2] | 0.13 nM | 0.42 nM |
| [Mpa]RYR[2Nal]GCRG[dF]G-NH2 (disulfide 1-7; also: acetate salt, Synthetic cyclic peptide, acetate salt; also called MLB-011) [Cyclo[Mpa-Arg-Tyr-Arg-2Nal-Gly-Cys]-Arg-Gly-(D-Phe)-Gly-NH2] | > 1000 nM | – |
| [Mpa]YK(iPr)[dR][2Nal]GCRG[dF]G-NH2 (disulfide 1-7; also: acetate salt, Synthetic cyclic peptide, acetate salt; also called MLB-002) [Cyclo[Mpa-Tyr-Lys(iPr)-(D-Arg)-2Nal-Gly-Cys]-Arg-Gly-(D-Phe)-Gly-NH2] | 0.28 nM | 0.92 nM |
| [Mpa]YR[dR][2Nal]GCRG[dF]G-NH2 (disulfide 1-7; also: acetate salt, Synthetic cyclic peptide, acetate salt; also called MLB-001) [Cyclo[Mpa-Tyr-Arg-(D-Arg)-2Nal-Gly-Cys]-Arg-Gly-(D-Phe)-Gly-NH2] | 7.3 nM | 24 nM |
| Ac-CYK(iPr)[dR][2Nal]GCK(iPr)G-NH2 (linker 1-7 via 1,2‑bisbromomethyl benzene; also: acetate salt, Acetate salt) [MLB-032] | 0.12 nM | 0.4 nM |
| [Mpa]YK(iPr)[dR][2Nal]GCK(iPr)G-NHEt (disulfide 1-7; also: acetate salt, Synthetic cyclic peptide, acetate salt; also called MLB-014) [Cyclo[Mpa-Tyr-Lys(iPr)-(D-Arg)-2Nal-Gly-Cys]-Lys(iPr)-Gly-NH(Et)] | 0.19 nM | 0.64 nM |
| [Mpa]YK(iPr)[dR][2Nal]GCK(iPr)K(Ac)-NHEt (disulfide 1-7; also: acetate salt, Synthetic cyclic peptide, acetate salt; also called MLB-027) [Cyclo[Mpa-Tyr-Lys(iPr)-(D-Arg)-2Nal-Gly-Cys]-Lys(iPr)-Lys(Ac)-NH(Et)] | 0.15 nM | 0.48 nM |
| [Mpa]YK(iPr)[dR][2Nal]GCK(iPr)K(Palmitoyl)-NHEt (disulfide 1-7; also: acetate salt, Synthetic cyclic peptide, acetate salt; also called MLB-029) [Cyclo[Mpa-Tyr-Lys(iPr)-(D-Arg)-2Nal-Gly-Cys]-Lys(iPr)-Lys(palmitoyl)-NH(Et)] | 3.2 nM | 11 nM |
| [Mpa]YK(iPr)[dR][2Nal]GCK(iPr)K(Lauroyl)-NHEt (disulfide 1-7; also: acetate salt, Synthetic cyclic peptide, acetate salt; also called MLB-028) [Cyclo[Mpa-Tyr-Lys(iPr)-(D-Arg)-2Nal-Gly-Cys]-Lys(iPr)-Lys(lauroyl)-NH(Et)] | 2.5 nM | 8.2 nM |
| Ac-CYK(iPr)[dR][2Nal]GCK(iPr)G-NH2 (linker 1-7 via 1,3‑bisbromomethyl benzene; also: acetate salt, Acetate salt) [MLB-033] | 0.99 nM | 3.3 nM |
| [Mpa]YK(iPr)[dR][2Nal]GCK(iPr)G[2Nal]G-NH2 (disulfide 1-7; also: acetate salt, Synthetic cyclic peptide, acetate salt; also called MLB-008) [Cyclo[Mpa-Tyr-Lys(iPr)-(D-Arg)-2Nal-Gly-Cys]-Lys(iPr)-Gly-2Nal-Gly-NH2] | 0.29 nM | 0.95 nM |
| Ac-[hCys]YK(iPr)[dR][2Nal]GCK(iPr)G-NHEt (disulfide 1-7; also: acetate salt, Synthetic cyclic peptide, acetate salt; also called MLB-026) [Ac-cyclo[hCys-Tyr-Lys(iPr)-(D-Arg)-2Nal-Gly-Cys]-Lys(iPr)-Gly-NH(Et)] | 0.27 nM | 0.89 nM |
| Ac-[hCys]YK(iPr)[dR][2Nal]GCK(iPr)G-NH2 (disulfide 1-7; also: acetate salt, Synthetic cyclic peptide, acetate salt; also called MLB-010) [Ac-cyclo[hCys-Tyr-Lys(iPr)-(D-Arg)-2Nal-Gly-Cys]-Lys(iPr)-Gly-NH2] | 0.17 nM | 0.56 nM |
| [Mpa]YK(iPr)[dR][2Nal]GC[dR]G[dF]G-NH2 (disulfide 1-7; also: acetate salt, Synthetic cyclic peptide, acetate salt; also called MLB-004) [Cyclo[Mpa-Tyr-Lys(iPr)-(D-Arg)-2Nal-Gly-Cys]-(D-Arg)-Gly-(D-Phe)-Gly-NH2] | 0.21 nM | 0.7 nM |
| Bz-CYK(iPr)[dR][2Nal]G[hCys]K(iPr)G-NH2 (disulfide 1-7; also: acetate salt, Synthetic cyclic peptide, acetate salt; also called MLB-022) [Benzoyl-cyclo[Cys-Tyr-Lys(iPr)-(D-Arg)-2Nal-Gly-hCys]-Lys(iPr)-Gly-NH2] | 0.21 nM | 0.71 nM |
